Laboratory results from publication PMC11605450, “Azotobacter vinelandii scaffold protein NifU transfers iron to NifQ as part of the iron-molybdenum cofactor biosynthesis pathway for nitrogenase” (The Journal of Biological Chemistry, 2024).

How the values were obtained:
[1] = target: apo-NifQH (A. vinelandii NifQ, C-terminal 6xHis, without [Fe-S] cluster) (A. vinelandii) (UniProt P11068); assay: pull-down; apo-NifQH, AS-NifUS and SNifS (10 nmol of each) incubated together 5 min, anaerobic, buffer W (100 mM Tris-HCl pH 8.0, 150 mM NaCl, 10% glycerol); Ni-NTA agarose column, washes with 5 and 20 mM imidazole, elution with 150 mM imidazole; immunoblots
[2] = target: R-NifUS (A. vinelandii NifU, C-terminal Strep-tag, with in vitro reconstituted [Fe-S] clusters) (A. vinelandii) (UniProt P05340)
Chain of R-NifUS (A. vinelandii NifU, C-terminal Strep-tag, with in vitro reconstituted [Fe-S] clusters) (A. vinelandii) (P05340 whole entry): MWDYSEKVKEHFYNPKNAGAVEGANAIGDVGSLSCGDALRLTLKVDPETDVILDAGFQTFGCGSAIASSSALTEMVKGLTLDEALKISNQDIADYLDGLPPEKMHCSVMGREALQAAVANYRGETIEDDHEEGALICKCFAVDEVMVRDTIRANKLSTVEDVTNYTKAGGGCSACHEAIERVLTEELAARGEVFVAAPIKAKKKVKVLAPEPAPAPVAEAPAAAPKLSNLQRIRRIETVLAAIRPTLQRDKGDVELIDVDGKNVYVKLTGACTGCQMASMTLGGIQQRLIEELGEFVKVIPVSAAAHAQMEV

[3] = target: T1, apo-NifQH (A. vinelandii NifQ, C-terminal 6xHis, without [Fe-S] cluster) (A. vinelandii, UniProt P11068 1-195); assay: pull-down; 10 nmol of Strep-tagged bait (AS-NifUS or R-IscUS) immobilised on a Streptactin-XT column in anaerobic buffer A (50 mM Tris-HCl pH 8.0, 100 mM NaCl, 10% glycerol), 10 nmol NifQH loaded onto the charged column, washed, eluted with 50 mM biotin; settings: both partners purified
T1 construct: Purified aerobically to destroy the [Fe-S] clusters; source: E. coli BL21 (DE3), purified (Ni-NTA, aerobic conditions); not shown: His6, C-terminal, kept
T1 sequence (looked up): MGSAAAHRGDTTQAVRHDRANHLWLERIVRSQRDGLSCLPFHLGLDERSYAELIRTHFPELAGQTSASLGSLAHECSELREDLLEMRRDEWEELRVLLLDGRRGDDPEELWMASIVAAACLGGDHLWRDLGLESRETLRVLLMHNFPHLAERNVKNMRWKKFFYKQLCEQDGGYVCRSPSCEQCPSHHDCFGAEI

AS-NifUS (as-isolated A. vinelandii NifU, C-terminal Strep-tag) (from UniProt P05340 1-312) (natural protein)
percent of the total protein co-eluted [1]: 10%

apo-NifQH (A. vinelandii NifQ, C-terminal 6xHis, without [Fe-S] cluster) (from UniProt P11068 1-195) (natural protein)
iron content per monomer of NifQH in the flowthrough of a Strep-tactin column after 5 min incubation of apo-NifQH with R-NifUS (Fe per NifQH monomer (molar ratio)) [2]: 1

B1: R-IscUS (A. vinelandii IscU, Strep-tag, with in vitro reconstituted [Fe-S] clusters) (natural protein, UniProt O31270 1-128, looked up)
chain: MAYSDKVIDHYENPRNVGKLDAQDPDVGTGMVGAPACGDVMRLQIKVNEQGIIEDAKFKTYGCGSAIASSSLATEWMKGRTLEEAETIKNTQIAEELALPPVKIHCSVLAEDAIKAAVRDYKHKKGLV
notes: also called R-SIscU; source: E. coli BL21 (DE3), purified (Strep-Tactin XT, anaerobic), [Fe-S] clusters reconstituted in vitro; not shown: Strep-tag, C-terminal, kept
binding result [3]: binds
